Assay results taken from CN112125972A (SINOCELLTECH LTD, dated 2020).

Legend:
Experiment in all cases: indirect ELISA, VLP coated at 2 μg/mL, antibody at 10 ng/mL
HPV45 VLP = target: T1, HPV45 VLP (Human papillomavirus type 45, UniProt P36741 27-539)
T1 construct: also called HPV45完整VLP蛋白
T1 sequence: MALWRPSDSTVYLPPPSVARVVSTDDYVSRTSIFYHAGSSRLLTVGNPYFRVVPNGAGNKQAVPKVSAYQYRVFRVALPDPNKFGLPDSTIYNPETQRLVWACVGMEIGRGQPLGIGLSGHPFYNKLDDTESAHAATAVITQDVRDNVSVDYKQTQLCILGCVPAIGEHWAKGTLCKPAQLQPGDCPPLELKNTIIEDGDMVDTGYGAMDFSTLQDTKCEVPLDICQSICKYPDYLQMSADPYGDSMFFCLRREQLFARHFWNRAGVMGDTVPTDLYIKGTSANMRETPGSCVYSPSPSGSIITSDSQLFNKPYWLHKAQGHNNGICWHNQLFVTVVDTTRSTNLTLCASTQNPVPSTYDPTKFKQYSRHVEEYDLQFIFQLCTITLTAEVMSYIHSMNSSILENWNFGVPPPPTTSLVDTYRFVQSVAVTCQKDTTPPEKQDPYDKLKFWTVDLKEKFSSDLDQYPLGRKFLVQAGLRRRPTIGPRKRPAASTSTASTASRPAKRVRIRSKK

HPV39 VLP = target: T2, HPV39 VLP (Human papillomavirus type 39, UniProt P24838 1-505)
T2 construct: also called HPV39完整VLP蛋白
T2 sequence: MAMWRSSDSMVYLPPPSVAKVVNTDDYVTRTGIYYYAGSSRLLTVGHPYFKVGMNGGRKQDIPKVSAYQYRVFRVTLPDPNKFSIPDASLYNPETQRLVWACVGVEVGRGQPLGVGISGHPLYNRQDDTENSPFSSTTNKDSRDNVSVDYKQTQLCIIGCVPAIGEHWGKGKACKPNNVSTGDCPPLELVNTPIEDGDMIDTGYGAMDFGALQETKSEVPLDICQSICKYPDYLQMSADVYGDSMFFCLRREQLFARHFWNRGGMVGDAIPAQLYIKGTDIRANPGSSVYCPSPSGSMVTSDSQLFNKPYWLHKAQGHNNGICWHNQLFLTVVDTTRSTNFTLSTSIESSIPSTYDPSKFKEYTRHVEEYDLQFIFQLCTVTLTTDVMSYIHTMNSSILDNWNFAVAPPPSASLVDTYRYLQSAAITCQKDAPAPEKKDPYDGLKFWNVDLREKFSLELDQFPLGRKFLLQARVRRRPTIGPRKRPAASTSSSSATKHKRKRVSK

HPV51 VLP = target: T3, HPV51 VLP (Human papillomavirus type 51, UniProt P26536 1-504)
T3 construct: also called HPV51完整VLP蛋白
T3 sequence: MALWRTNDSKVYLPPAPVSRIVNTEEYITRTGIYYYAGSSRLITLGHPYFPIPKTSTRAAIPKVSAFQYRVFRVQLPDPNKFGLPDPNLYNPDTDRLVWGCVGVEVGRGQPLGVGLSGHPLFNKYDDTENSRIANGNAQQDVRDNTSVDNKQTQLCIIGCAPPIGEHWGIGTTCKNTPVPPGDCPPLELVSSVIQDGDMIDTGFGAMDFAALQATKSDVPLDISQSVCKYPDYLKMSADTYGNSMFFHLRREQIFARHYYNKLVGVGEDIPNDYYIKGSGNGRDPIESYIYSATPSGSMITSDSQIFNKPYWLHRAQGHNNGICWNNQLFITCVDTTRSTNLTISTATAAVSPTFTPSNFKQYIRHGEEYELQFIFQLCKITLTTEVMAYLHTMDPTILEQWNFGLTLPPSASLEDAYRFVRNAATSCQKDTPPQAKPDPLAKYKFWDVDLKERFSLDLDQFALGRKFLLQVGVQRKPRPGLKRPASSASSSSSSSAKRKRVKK

HPV58 VLP = target: T4, HPV58 VLP (Human papillomavirus type 58, UniProt P26535 27-524)
T4 construct: also called HPV58完整VLP蛋白
T4 sequence: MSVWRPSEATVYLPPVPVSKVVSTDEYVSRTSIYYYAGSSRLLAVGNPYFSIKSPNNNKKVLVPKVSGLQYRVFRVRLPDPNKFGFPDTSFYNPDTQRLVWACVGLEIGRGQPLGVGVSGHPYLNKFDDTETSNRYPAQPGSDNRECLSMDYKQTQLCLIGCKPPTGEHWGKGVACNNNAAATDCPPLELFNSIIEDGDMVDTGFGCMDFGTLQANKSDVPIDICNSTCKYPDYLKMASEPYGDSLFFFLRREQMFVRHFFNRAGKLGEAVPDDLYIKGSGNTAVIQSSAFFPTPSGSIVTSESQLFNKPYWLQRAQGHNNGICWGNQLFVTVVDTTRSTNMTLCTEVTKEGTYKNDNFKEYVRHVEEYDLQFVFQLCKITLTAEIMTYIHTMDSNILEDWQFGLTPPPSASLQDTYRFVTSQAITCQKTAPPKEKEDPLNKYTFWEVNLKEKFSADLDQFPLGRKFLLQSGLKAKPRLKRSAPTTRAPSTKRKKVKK

HPV56 VLP = target: T5, HPV56 VLP (Human papillomavirus type 56, UniProt P36743 36-534)
T5 construct: also called HPV56完整VLP蛋白
T5 sequence: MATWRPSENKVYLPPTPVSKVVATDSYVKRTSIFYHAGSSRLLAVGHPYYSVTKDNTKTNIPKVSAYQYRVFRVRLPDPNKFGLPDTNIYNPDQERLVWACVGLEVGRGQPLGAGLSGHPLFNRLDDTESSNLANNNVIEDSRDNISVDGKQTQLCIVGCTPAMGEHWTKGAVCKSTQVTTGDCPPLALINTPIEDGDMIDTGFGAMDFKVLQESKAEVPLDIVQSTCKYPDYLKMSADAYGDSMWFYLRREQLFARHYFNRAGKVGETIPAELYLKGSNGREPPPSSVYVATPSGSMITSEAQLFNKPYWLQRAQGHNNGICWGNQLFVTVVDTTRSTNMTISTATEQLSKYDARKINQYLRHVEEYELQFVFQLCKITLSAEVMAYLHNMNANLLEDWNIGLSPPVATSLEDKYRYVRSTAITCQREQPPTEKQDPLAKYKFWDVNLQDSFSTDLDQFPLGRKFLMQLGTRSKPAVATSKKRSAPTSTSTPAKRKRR

B1: HPV 16 R001 (antibody, V domains shown)
VH: QSVKESEGRLVTPGTPLTLTCTASGFTMSRYHMTWVRQAPGKGLEWIGIIYARNSDTYYANWAKGRFTISKTSTTVDLKITSPTIEDTATYFCARVDSDSSGAFDRLDLWGQGTLVTVSS
VL: DPMLTQTAASVEVAVGGTVTIKCQASQSIGGYLSWYQQKPGQRPKLLIYRASTLASGVPSRFKGSGSGTEYTLTFSGVECADAAAYYCQQGYTSSDINNAFGGGTEVVVK
notes: An HRP-labelled form served as detection antibody in the sandwich ELISA; also called HPV16.001; 单克隆抗体HPV 16 R001
OD450-blank (HPV45 VLP): 0.002 OD450 | OD450-blank (HPV39 VLP): 0.004 OD450 | OD450-blank (HPV51 VLP): 0.001 OD450 | OD450-blank (HPV58 VLP): 0.003 OD450 | OD450-blank (HPV56 VLP): 0.003 OD450
